Measurements as given in paper PMC3390394.

Assays:
[1] = molecular target: Arabidopsis thaliana dihydrodipicolinate synthase 2 (At-DHDPS2) (Arabidopsis thaliana) (UniProt Q9FVC8); experiment: AUC; sedimentation velocity, c(s) analysis (SEDFIT); 20 mM Tris-HCl, 150 mM NaCl, pH 8.0, 20°C; At-DHDPS2 at 0.75 mg/mL, 50,000 rpm; At-DHDPR2 at 0.1-1.6 mg/mL, 40,000 rpm
[2] = molecular target: Arabidopsis thaliana dihydrodipicolinate synthase 2 (At-DHDPS2) (Arabidopsis thaliana) (UniProt Q9FVC8); experiment: SEC-MALS; Malvern P3000 column with Viscotek TDA (refractive index, low angle and right angle light scattering); 100 µL of 1.0 mg/mL; 20 mM Tris-HCl, 150 mM NaCl, pH 8.0; 28°C

Arabidopsis thaliana dihydrodipicolinate synthase 2 (At-DHDPS2), sequence (Q9FVC8 40-365): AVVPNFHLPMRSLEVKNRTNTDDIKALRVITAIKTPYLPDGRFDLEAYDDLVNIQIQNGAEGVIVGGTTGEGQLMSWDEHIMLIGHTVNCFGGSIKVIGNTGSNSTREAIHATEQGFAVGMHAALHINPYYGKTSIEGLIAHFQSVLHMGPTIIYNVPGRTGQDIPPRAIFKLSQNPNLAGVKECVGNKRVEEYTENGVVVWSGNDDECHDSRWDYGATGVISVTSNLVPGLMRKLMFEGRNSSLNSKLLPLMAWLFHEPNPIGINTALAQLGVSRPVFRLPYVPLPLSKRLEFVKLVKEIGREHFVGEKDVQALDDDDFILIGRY

stoichiometry N [1]: 4
stoichiometry N [2]: 4
Substance: Arabidopsis thaliana dihydrodipicolinate synthase 2 (At-DHDPS2) (from UniProt Q9FVC8 40-365) (enzyme)
